# The nanobody polyreactivity screen of Harvey et al. (2022)
# Experiment: yeast display, Sf9 membrane polyspecificity reagent, FACS + sequencing; frameworks hold sequencing errors
# Outline: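 Genes from sorted yeast were amplified by colony PCR, read by MiSeq 2 × 250 sequencing and filtered on CDR length. These cells carried a synthetic nanobody library in Saccharomyces cerevisiae BJ5465 and were sorted by FACS into low and high (top ~1%) gates on anti-HA and streptavidin fluorescence. Polyreactivity is labelled according to the gate of origin.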
row,Sequence,polyreactivity (PSR sort gate)
1,QVQLVESGGGLVQAGGSLRLSCAASGIIFYRYAMVWYRQAPGKERELVAAITWSGVSTSYADSVKGRFTISRDNAMNTVYLQMTSLKPEDTAVYYCNKDQGTLYGDMDSWGQGTQVTVSS,low polyreactivity
2,QVQLVESGGGLVQAGGSLRLSCAASGIIFYRYVMGWYRQAHGKERELVAAINNDGASTHYADSVKGRFTISRDNAKNTVYLQMNSLKPEDTAVYYCATRDSLYYRYWSNNYWGQGTQVTVSS,high polyreactivity
3,QVQLVESGGGLVQAGGSLRLSCAASGIIFYTYAMGWYRQAPGKEREFVAGIRWSGSSTYYADSVKGRFTISRDNAKNTVYLQMNCLNPEDTAVYYCATGQPYGPLFSMGYGYWGQVTQVTVSS,high polyreactivity
4,QVQLVESGGGLVQAGGSLRLSCAASGIIFYWNAMGWYRQAPGKERELVAGITRGGSTYYADSVKGRFTISRDNATNTVYLLMNSLKPEDTAVYYCAKRQASRRVSYSRYDYWGQGTQVTVSS,high polyreactivity
5,QVQLVESGGGLVQAGGSLRLSCAASGIIFYWYAMGWYRQAPGKERELVAGIDSDGSTNYADSVKGRFTISRDNAKNTVYLQMNSLKPEDTAVYYCAAVQGYRFYESYYWGQGTQVTVSS,low polyreactivity
6,QVQLVESGGGLVQAGGSLRLSCAASGIIFYYNAMGWYRQAPGKERELVAAINDSGNTYYADSVKGRFTISRDNAKNTVYFQMNSLKPEDTAVYYCAADVWKYWGYDYWGQGTQVTVSS,low polyreactivity
7,QVQLVESGGGLVQAGGSLRLSCAASGIIFYYYAMGSDRQAPGKERELVAAITSSGVRTYYADSVKGRFTISRDNAKNTVYLQMNSLKPEDTAVYYCAASSVLYSRSYDYWGQGTQVTVSS,high polyreactivity
8,QVQLVESGGGLVQAGGSLRLSCAASGIIFYYYAMGWYRQAPGTERELVARISLSGGSTYYADSVKGRFTISRDNAKNTVYLQMNSLKPEDTAVYYCATRSWYKRQTYDYWGQGTQVTVSS,high polyreactivity
9,QVQLVESGGGLVQAGGSLRLSCAASGIIFYYYAMGWYRQATGKERELVAAITRSGGSTYYADSVKGRFTISRDNAKNTVYLQMNSLKPEDTAVYYCAAARLPYYVGRYYYWGQGTQVTVSS,high polyreactivity
10,QVQLVESGGGLVQAGGSLRLSCAASGIIIDSNAMGWYRQAPGKERELVAAITSGGSTKYADSVKGRFTISRDNAKNTVYLQMNSLKPEDTAVYYCNADFRPADQWSYFYEMDSWGQGTQVTVSS,low polyreactivity
11,QVQLVESGGGLVQAGGSLRLSCAASGIIIDYNAMGWYRQAHGKERELVAAISSRGGSTYYADSVKGRFTISRDNAKNTVYLQMNSLKPEDTAVYYCAKVIGKYVNSYYWGQGTQVTVSS,low polyreactivity
12,QVQLVESGGGLVQAGGSLRLSCAASGIIIKRNAMGWYRQAPGKEMELVAAISRSGGSTYYSDSVKGRFTISRDIAMNTVYLQMNSLKAEDTAVYYCAADWSEYPYDYWGQGTQVTVSS,low polyreactivity
13,QVQLVESGGGLVQAGGSLRLSCAASGIIIPVYAMGWYRQAPGKERELVAAISSGGSTYYADSVKGRFTISRDNAKNTVYLQMNSLKPEDTAVFYCAAGYQKGYADPGFDYWGQGTQVTVSS,high polyreactivity
14,QVQLVESGGGLVQAGGSLRLSCAASGIIIQINAMGWYRPAPGKERELVAAITIDGTTNYADSVKGRFTISRDNAKNTVYLQMNILKPEDTAVYYCARRRSVYVWEPYQYDYWGQGTQVTVSS,low polyreactivity
15,QVQLVESGGGLVQAGGSLRLSCAASGIIIYRYVMGWYRPAPGKERELVASISSSGGRTHYADSVKGRFTISRDNAKNTVYLQMNSLKPEDTAVYYCAAVQRSSFYRRYDYWGQGTQVTVSS,high polyreactivity
16,QVQLVESGGGLVQAGGSLRLSCAASGIILGSNAKGWYRQAPGKERELVAGITSGGGTYYADSVKGRFTISRDNAKKTVYLQMNSLKPEDTAVYYCAKLYFHYYRYGYWGQGTQVTVSS,low polyreactivity
17,QVQLVESGGGLVQAGGSLRLSCAASGIILHYYAMGWYRQAPGKQRELVAAISARGGRTYYADSVKGRFTISRDNAKNTVYLQMNSLKPEDTAVYYCAAVTVASPTRMDYWGQGTLVTVSS,high polyreactivity
18,QVQLVESGGGLVQAGGSLRLSCAASGIILIQNSMGWSRHAPGKERELVAAISTRGGRTYYADSVKGRFTISRDNAKNTVYLQMNSLKPEDTAVYYCAAYRTTPYRDYKMDYWGQGTQVTVSS,high polyreactivity
19,QVQLVESGGGLVQAGGSLRLSCAASGIILPYYAMGWYRQAPGKERELGASISYDGTSTYYADSVKGRFTISRDNAKNTVYLQMNSLKPEDTAVYYCAAVQWWPRASYSMDYWGQGTQVTASS,low polyreactivity
20,QVQLVESGGGLVQAGGSLRLSCAASGIILRRYAMGWYRQPPGKERELVAAISSRGGSTYYADSVKGRFTISRDNAKNTVYLQMNSLKPEDTAVYYCAAEDYWYDFDYWGQGTQVTVSS,high polyreactivity
21,QVQLVESGGGLVQAGGSLRLSCAASGIILRYYVMGWYRQAPGKERELVAAITSRGGSTYYADSVKGRFTISRDNAKITVYLQMNSLKPEDTAVYYCAAGYRNVNTFDYWGQGTQVTVSS,high polyreactivity
22,QVQLVESGGGLVQAGGSLRLSCAASGIILSPYTMGWYIQAPGKERELVAGISRSGGTTYYADSVKGRFTISRDNAKNTVYLQMNSLKPEDTAVYYCAAGLIYGYSGYDSWGQGTQVTVSS,low polyreactivity

row,Sequence,polyreactivity (PSR sort gate)
1,QVQLVESGGGLVQAGGSLRLSCAASGIIMPSYVMGWYRQAPGKERELVAAITRSGGNTYYADSVKGRFTISRDNAKNTVYLQMNSLKPEDTAVYYCAARAPVRRYRAYEFDYWGQGTQVTVSS,high polyreactivity
2,QVQLVESGGGLVQAGGSLRLSCAASGIIQVYNTMGWYRQAPGKERELVAAINYSGGSTNYADSVKGRFTISRDNAKNTVYFQMNSLKPEDTAVYYCNARYGGFNVPYLRYEHWGQGTQVTVSS,low polyreactivity
3,QVQLVESGGGLVQAGGSLRLSCAASGIISGDYAMGWYRQAPGKERELVARITSGDSTNYADSVKGRFTISRDNAKNTVYLQMNSLKPEDTAVYYCAADRVWAYWTYGYWGQGTQVTVSS,low polyreactivity
4,QVQLVESGGGLVQAGGSLRLSCAASGIIYGNVMGWYRQAPGKESELVAAITGSGGSTYYADSVKGRFTISRDNAKNTVYLQMNSLKPEDTAVYYCAADLALYNTLYLTLPDYYWGEGTQVTVSS,low polyreactivity
5,QVQLVESGGGLVQAGGSLRLSCAASGIIYYGYAMGWYRQAPGKERELVAAISRSGGSTYYADSVKGRFTISRDNAKNTVYLQMNSLKPEDTAVYYCAASGVTYDYWGQGTQVTVSS,high polyreactivity
6,QVQLVESGGGLVQAGGSLRLSCAASGIIYYGYVMGWYRQAPGKERELVATITSSGGSKYYADSVKGRFTISRDNAKNTVYLQMNSLKPEDTAVYYCAADYYYGAWVRHDYWGQCTQVTVSS,low polyreactivity
7,QVQLVESGGGLVQAGGSLRLSCAASGILLFNAMGWYRQAHGKERELVAAINSGGSTNYADSVKGRFPISRDNAKNTGYLQMNSLKPEDTAVYYCAKDTPFTLRVWAEGGMDYWGQGTQVTVSS,low polyreactivity
8,QVQLVESGGGLVQAGGSLRLSCAASGIMFSSYAMLWYRQAPGKERELFAAISWSGGSTYYADSVKLRFTISRDNAKNTVYLQMNSLKPEDTAVYYCAAKSHWYKRGYWGQGTQVTVSS,low polyreactivity
9,QVQLVESGGGLVQAGGSLRLSCAASGINFESYVMGWYRQAPGKERELVARISYSGGSTYYADSVKGRFTISRDNAKNTVYLQMNSLIPEDTAVYYCNARYLFSGRYSRRMEYWGQGTQVTVSS,high polyreactivity
10,QVQLVESGGGLVQAGGSLRLSCAASGINFFVYDMGWYRQAPGKERELVAAITWSGDSTYYADSVKGRFTISRDNAKNTVYLQINSLKPVDSAVYYCAAQFDVYYSRQPYDYNRSGYWGQGTQVTVSS,low polyreactivity
11,QVQLVESGGGLVQAGGSLRLSCAASGINFGQNAMGWYRQAPGKERELVAAITISVGSTYYADSVKGRFTISRDNAKNTVYLQMNSLKPEDTAVYYCAARRVTWKVIARGYRYGYWGQGTQVTVTS,low polyreactivity
12,QVQLVESGGGLVQAGGSLRLSCAASGINFGYYTMGWYRQAPGKDREFVAAITANGGRTYYADSVKGRFTLSRDNAKNTVYLKMNSLKPEDTAVYYCNARTYTYRGSFDYWVQGTQVTVSS,high polyreactivity
13,QVQLVESGGGLVQAGGSLRLSCAASGINFNYYVMGWYRQAPGKERELVAAISRSGGRTRYADSVKGRFTISRDNAKNTVYLQMNSLKPEDTAVYYCAAVGSVNYDADFDYWGQGTQVTVSS,high polyreactivity
14,QVQLVESGGGLVQAGGSLRLSCAASGINFRGYAMGWYRQAPGKERELVASITNTDSTYYADSVKGRFTISRDNAKNTVYLQMNSLKPEDTAVYYCAARRGRKYGYWGQGTQVTVSS,high polyreactivity
15,QVQLVESGGGLVQAGGSLRLSCAASGINFTSYAMGWYRQAPGKERELVAAISSSGVRTYYADSVKGRFTISRDNAKNTVYLQMNSQKPEDTAVYYCATRRRVLYGYDYWGQGTQVTVSS,high polyreactivity
16,QVQLVESGGGLVQAGGSLRLSCAASGINISWYAMGLYRQAPGKERELVAAISRRGGRTYYADSVKGRFTSSRDNAKNTVYLEMKSMLPEDTAVYYCAVVERQVPGPADGSVQVYYYWGQGTQVTGSS,high polyreactivity
17,QVQLVESGGGLVQAGGSLRLSCAASGIPFYVKDMGWYRQAPGKDWDCVAAISYRGGSTYYADSVKGRFTISRDNAKNTVYLQMNSLKPEDTAVYYCAADYNYWSPHRDDYWGQGTQVTVSS,low polyreactivity
18,QVQLVESGGGLVQAGGSLRLSCAASGISFERNGMGWYRQATGKERELVAAIRSGGSTYYADSVKGRFTISRDNAKNRVYVQMHSLKPEETAVYYCAAVTQGGYTDLGDYWGQGTQVTVSS,low polyreactivity
19,QVQLVESGGGLVQAGGSLRLSCAASGISFGVYSLGWYRQAPGKERELVAAISSSGTSTYYADSVKGRFTISRDNAKNTVYLQMNSLKPEDTAVYYCAADYKRNQEVDYWGQGTQVTVSS,high polyreactivity
20,QVQLVESGGGLVQAGGSLRLSCAASGITFAAYAMGWYRQAPGKERELVAAISTSGDSTYYADSVKGRFTISRDNAKNTVYLQMNSLKPEDTAVYYCAARAVRLSSSKVDYWGQGTQVTVSS,high polyreactivity
21,QVQLVESGGGLVQAGGSLRLSCAASGITFAHYAMGWYRQAPGKERELVAVITSGGSTYYADSVKGRFTISRDNAKNTVYLQMNSLKPEDTAVYYCNRVPRRSIRYDYWGQGTQVTVSS,high polyreactivity
